The series addresses T1, TLR7-Fc (toll-like receptor 7 ectodomain fused to human Fc) (UniProt Q9NYK1 27-839).
T1 sequence: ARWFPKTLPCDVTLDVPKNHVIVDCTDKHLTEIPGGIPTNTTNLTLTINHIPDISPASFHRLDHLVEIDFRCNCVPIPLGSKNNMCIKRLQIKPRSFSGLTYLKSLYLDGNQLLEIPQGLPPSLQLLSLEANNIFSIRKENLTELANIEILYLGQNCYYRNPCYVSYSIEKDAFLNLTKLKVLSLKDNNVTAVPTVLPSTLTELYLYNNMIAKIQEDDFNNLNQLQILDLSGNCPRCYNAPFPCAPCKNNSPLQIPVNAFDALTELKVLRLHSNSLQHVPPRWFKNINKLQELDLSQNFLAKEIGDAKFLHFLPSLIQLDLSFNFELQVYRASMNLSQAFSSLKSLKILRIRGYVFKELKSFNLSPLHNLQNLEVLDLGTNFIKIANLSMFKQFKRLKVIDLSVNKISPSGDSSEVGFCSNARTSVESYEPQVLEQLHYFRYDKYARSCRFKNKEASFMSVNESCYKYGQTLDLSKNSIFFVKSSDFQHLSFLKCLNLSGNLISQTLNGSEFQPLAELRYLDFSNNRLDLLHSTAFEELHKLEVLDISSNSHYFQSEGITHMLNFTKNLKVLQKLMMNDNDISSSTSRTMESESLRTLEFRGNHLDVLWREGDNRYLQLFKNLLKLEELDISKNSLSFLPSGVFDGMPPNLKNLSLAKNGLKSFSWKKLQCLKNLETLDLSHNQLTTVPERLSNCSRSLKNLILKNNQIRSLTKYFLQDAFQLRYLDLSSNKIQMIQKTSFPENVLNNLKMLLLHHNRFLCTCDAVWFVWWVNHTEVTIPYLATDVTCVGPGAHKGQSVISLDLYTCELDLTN
Nature of the series: competition.

One molecule from article doi:10.1101/2024.07.23.604836 can be followed below.

B1: competitor ssRNA (ssRNA)
RNA: GUCUUCAAAACUAGGUCGUUUUAGA
modifications: 5' phosphate; 3' biotin
Regarding B1, the binding result was “binds”.
